# Assay results from the RNAGym collection of RNA variant scans (doi:10.1021/acssynbio.7b00057).
# B1: Pistol ribozyme (parent)
# chain: GGGUCGUUGUUCCAUAAUCGCGUGGAUAUGGCACGCAAGUUUCUACCGGGCACCGUAAAUGUCCGACUGGAGCCGUUCGGGCGGCUAUAAACAGACCUCAGGCCCGAAGCGUGGCGGCACCUGCCGCCGGUGGUAAAAAAGAUCGGAAGAGCACACGUCU
# Variants of: B1
# Assay: aptazyme ON/OFF ratio, guanine; higher = stronger switching; co-transcriptional cleavage with and without guanine
row,Variant,aptazyme ON/OFF ratio
1,GGGUCGGACCCUUAUAAUCGCGUGGAUAUGGCACGCAAGUUUCUACCGGGCACCGUAAAUGUCCGACUGGAGCCGUUCGGGCGGCUAUAAACAGACCUCAGGCCCGAAGCGUGGCGGCACCUGCCGCCGGUGGUAAAAAAGAUCGGAAGAGCACACGUCU [U7G U8A G9C U10C U11C C12U C13U],1.01
2,GGGUCGGACCCUGAUAAUCGCGUGGAUAUGGCACGCAAGUUUCUACCGGGCACCGUAAAUGUCCGACUGGAGCCGUUCGGGCGGCUAUAAACAGACCUCAGGCCCGAAGCGUGGCGGCACCUGCCGCCGGUGGUAAAAAAGAUCGGAAGAGCACACGUCU [U7G U8A G9C U10C U11C C12U C13G],1.04
3,GGGUCGGACCCCGAUAAUCGCGUGGAUAUGGCACGCAAGUUUCUACCGGGCACCGUAAAUGUCCGACUGGAGCCGUUCGGGCGGCUAUAAACAGACCUCAGGCCCGAAGCGUGGCGGCACCUGCCGCCGGUGGUAAAAAAGAUCGGAAGAGCACACGUCU [U7G U8A G9C U10C U11C C13G],1.01
4,GGGUCGGACCCCUAUAAUCGCGUGGAUAUGGCACGCAAGUUUCUACCGGGCACCGUAAAUGUCCGACUGGAGCCGUUCGGGCGGCUAUAAACAGACCUCAGGCCCGAAGCGUGGCGGCACCUGCCGCCGGUGGUAAAAAAGAUCGGAAGAGCACACGUCU [U7G U8A G9C U10C U11C C13U],1.03
5,GGGUCGGACCCCAAUAAUCGCGUGGAUAUGGCACGCAAGUUUCUACCGGGCACCGUAAAUGUCCGACUGGAGCCGUUCGGGCGGCUAUAAACAGACCUCAGGCCCGAAGCGUGGCGGCACCUGCCGCCGGUGGUAAAAAAGAUCGGAAGAGCACACGUCU [U7G U8A G9C U10C U11C C13A],1.03
6,GGGUCGGACCGAGAUAAUCGCGUGGAUAUGGCACGCAAGUUUCUACCGGGCACCGUAAAUGUCCGACUGGAGCCGUUCGGGCGGCUAUAAACAGACCUCAGGCCCGAAGCGUGGCGGCACCUGCCGCCGGUGGUAAAAAAGAUCGGAAGAGCACACGUCU [U7G U8A G9C U10C U11G C12A C13G],1
7,GGGUCGGACCGAUAUAAUCGCGUGGAUAUGGCACGCAAGUUUCUACCGGGCACCGUAAAUGUCCGACUGGAGCCGUUCGGGCGGCUAUAAACAGACCUCAGGCCCGAAGCGUGGCGGCACCUGCCGCCGGUGGUAAAAAAGAUCGGAAGAGCACACGUCU [U7G U8A G9C U10C U11G C12A C13U],1.01
8,GGGUCGGACCGAAAUAAUCGCGUGGAUAUGGCACGCAAGUUUCUACCGGGCACCGUAAAUGUCCGACUGGAGCCGUUCGGGCGGCUAUAAACAGACCUCAGGCCCGAAGCGUGGCGGCACCUGCCGCCGGUGGUAAAAAAGAUCGGAAGAGCACACGUCU [U7G U8A G9C U10C U11G C12A C13A],1.02
9,GGGUCGGACCGGCAUAAUCGCGUGGAUAUGGCACGCAAGUUUCUACCGGGCACCGUAAAUGUCCGACUGGAGCCGUUCGGGCGGCUAUAAACAGACCUCAGGCCCGAAGCGUGGCGGCACCUGCCGCCGGUGGUAAAAAAGAUCGGAAGAGCACACGUCU [U7G U8A G9C U10C U11G C12G],1.03
10,GGGUCGGACCGUCAUAAUCGCGUGGAUAUGGCACGCAAGUUUCUACCGGGCACCGUAAAUGUCCGACUGGAGCCGUUCGGGCGGCUAUAAACAGACCUCAGGCCCGAAGCGUGGCGGCACCUGCCGCCGGUGGUAAAAAAGAUCGGAAGAGCACACGUCU [U7G U8A G9C U10C U11G C12U],1.12
11,GGGUCGGACCGACAUAAUCGCGUGGAUAUGGCACGCAAGUUUCUACCGGGCACCGUAAAUGUCCGACUGGAGCCGUUCGGGCGGCUAUAAACAGACCUCAGGCCCGAAGCGUGGCGGCACCUGCCGCCGGUGGUAAAAAAGAUCGGAAGAGCACACGUCU [U7G U8A G9C U10C U11G C12A],1.08
12,GGGUCGGACCGGUAUAAUCGCGUGGAUAUGGCACGCAAGUUUCUACCGGGCACCGUAAAUGUCCGACUGGAGCCGUUCGGGCGGCUAUAAACAGACCUCAGGCCCGAAGCGUGGCGGCACCUGCCGCCGGUGGUAAAAAAGAUCGGAAGAGCACACGUCU [U7G U8A G9C U10C U11G C12G C13U],1.02
13,GGGUCGGACCGGGAUAAUCGCGUGGAUAUGGCACGCAAGUUUCUACCGGGCACCGUAAAUGUCCGACUGGAGCCGUUCGGGCGGCUAUAAACAGACCUCAGGCCCGAAGCGUGGCGGCACCUGCCGCCGGUGGUAAAAAAGAUCGGAAGAGCACACGUCU [U7G U8A G9C U10C U11G C12G C13G],1.02
14,GGGUCGGACCGGAAUAAUCGCGUGGAUAUGGCACGCAAGUUUCUACCGGGCACCGUAAAUGUCCGACUGGAGCCGUUCGGGCGGCUAUAAACAGACCUCAGGCCCGAAGCGUGGCGGCACCUGCCGCCGGUGGUAAAAAAGAUCGGAAGAGCACACGUCU [U7G U8A G9C U10C U11G C12G C13A],1.02
15,GGGUCGGACCGUUAUAAUCGCGUGGAUAUGGCACGCAAGUUUCUACCGGGCACCGUAAAUGUCCGACUGGAGCCGUUCGGGCGGCUAUAAACAGACCUCAGGCCCGAAGCGUGGCGGCACCUGCCGCCGGUGGUAAAAAAGAUCGGAAGAGCACACGUCU [U7G U8A G9C U10C U11G C12U C13U],1.04
16,GGGUCGGACCGUAAUAAUCGCGUGGAUAUGGCACGCAAGUUUCUACCGGGCACCGUAAAUGUCCGACUGGAGCCGUUCGGGCGGCUAUAAACAGACCUCAGGCCCGAAGCGUGGCGGCACCUGCCGCCGGUGGUAAAAAAGAUCGGAAGAGCACACGUCU [U7G U8A G9C U10C U11G C12U C13A],1.05
17,GGGUCGGACCGUGAUAAUCGCGUGGAUAUGGCACGCAAGUUUCUACCGGGCACCGUAAAUGUCCGACUGGAGCCGUUCGGGCGGCUAUAAACAGACCUCAGGCCCGAAGCGUGGCGGCACCUGCCGCCGGUGGUAAAAAAGAUCGGAAGAGCACACGUCU [U7G U8A G9C U10C U11G C12U C13G],1.03
18,GGGUCGGACCGCCAUAAUCGCGUGGAUAUGGCACGCAAGUUUCUACCGGGCACCGUAAAUGUCCGACUGGAGCCGUUCGGGCGGCUAUAAACAGACCUCAGGCCCGAAGCGUGGCGGCACCUGCCGCCGGUGGUAAAAAAGAUCGGAAGAGCACACGUCU [U7G U8A G9C U10C U11G],1.05
